Key:
[1] = biological target: fluorescent H3K4me3 peptide; assay: fluorescence polarisation; increasing concentrations of TAF3 PHD finger with fluorescent H3K4me3 peptide, no PI; apparent KD
[2] = biological target: fluorescent H3K4me3 peptide; assay: fluorescence polarisation; increasing concentrations of TAF3 PHD finger with fluorescent H3K4me3 peptide, with a 5-fold molar excess of PI5P; apparent KD

Kd [1]: 1 µM
Kd [2]: 3.5 µM
B1: GST-TAF3 PHD finger, wild type (domain or fragment)
chain: IWICPGCNKPDDGSPMIGCDDCDDWYHWPCVGIMTAPPEEMQWFCPKCANKKKDKKHKKRKHRAH
modifications: not checked
